The target in this assay is Sodium-bicarbonate co-transporter NBCn1 (SLC4A7), native in human cells (human (endogenous in MCF-7 and HEK293T)) (UniProt Q9Y6M7). The assay is described as follows: proximity ligation.

The results in this text go back to article doi:10.1101/2022.10.05.510992.

Sequence of UniProt Q9Y6M7 (Q9Y6M7 whole entry): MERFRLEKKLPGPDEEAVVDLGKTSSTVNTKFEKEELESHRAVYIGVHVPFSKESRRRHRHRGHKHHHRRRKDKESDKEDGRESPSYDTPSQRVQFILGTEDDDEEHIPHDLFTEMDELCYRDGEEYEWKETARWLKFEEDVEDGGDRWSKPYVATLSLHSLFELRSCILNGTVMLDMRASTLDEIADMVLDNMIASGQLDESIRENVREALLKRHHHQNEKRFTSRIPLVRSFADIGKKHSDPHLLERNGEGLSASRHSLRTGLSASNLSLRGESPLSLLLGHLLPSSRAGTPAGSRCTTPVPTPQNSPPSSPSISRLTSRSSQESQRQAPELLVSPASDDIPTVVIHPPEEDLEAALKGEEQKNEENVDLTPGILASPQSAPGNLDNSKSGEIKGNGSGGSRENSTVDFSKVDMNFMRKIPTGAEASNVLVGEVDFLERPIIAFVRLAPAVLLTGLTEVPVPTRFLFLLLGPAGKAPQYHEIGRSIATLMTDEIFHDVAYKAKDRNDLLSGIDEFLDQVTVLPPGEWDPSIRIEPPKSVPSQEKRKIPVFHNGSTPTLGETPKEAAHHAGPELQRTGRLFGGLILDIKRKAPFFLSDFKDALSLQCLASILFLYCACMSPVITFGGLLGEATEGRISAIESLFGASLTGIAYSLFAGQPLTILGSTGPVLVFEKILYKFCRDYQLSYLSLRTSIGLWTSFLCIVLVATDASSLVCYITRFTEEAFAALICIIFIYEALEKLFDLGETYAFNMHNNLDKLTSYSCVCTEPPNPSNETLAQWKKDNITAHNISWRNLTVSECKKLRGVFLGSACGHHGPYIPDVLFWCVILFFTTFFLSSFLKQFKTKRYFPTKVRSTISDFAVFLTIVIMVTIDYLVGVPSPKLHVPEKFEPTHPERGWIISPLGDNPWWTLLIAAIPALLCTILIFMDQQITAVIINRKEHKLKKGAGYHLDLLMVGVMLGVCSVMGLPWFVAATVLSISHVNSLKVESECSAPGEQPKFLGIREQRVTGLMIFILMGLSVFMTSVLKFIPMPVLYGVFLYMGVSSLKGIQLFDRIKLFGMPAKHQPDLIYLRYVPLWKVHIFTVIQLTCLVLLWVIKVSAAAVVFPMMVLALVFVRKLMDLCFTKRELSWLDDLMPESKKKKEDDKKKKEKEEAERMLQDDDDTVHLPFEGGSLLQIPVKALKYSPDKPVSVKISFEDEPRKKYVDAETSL

For the substance “E-cadherin, native in MCF-7 cells (natural protein)”, the PLA signal, fold over the NBCn1-NHE1 control was determined as 4 fold and the PLA signal, fold over the negative control (only NBCn1 antibody) is 11 fold.
